Results reported in patent US20060062761A1.

Experiments:
Test in all cases: competition
Conditions in all cases: modification not given
[1] = target: HLA-DR DRB1*0101 on fixed HOM-2 cells (human)
[2] = target: HLA-DR DRB1*0701 on fixed MOU (MANN) cells (human)
[3] = target: HLA-DR DRB1*0401 on fixed WT-51 cells (human)

Binder | IC50 [1] [µM] | IC50 [2] [µM] | IC50 [3] [µM]
PLMKEDSILAVRKYF [37] | 85 | > 500 | 
GFPQEEFGNQFQKAE [13] |  | > 500 | 
RRISLFSCLKDRHDF [8] | 180 |  | 
IQGVGVTETPLMKED [34] | > 500 | > 500 | 
VGVTETPLMKEDSIL [35] | > 500 | > 500 | 
SILAVRKYFQRITLY [39] | 100 | 60 | 
QEEFGNQFQKAETIP [14] |  | > 500 | 
SLFSCLKDRHDFGFP [9] |  | > 500 | 
FGNQFQKAETIPVLH [15] |  | 25 | 
AEIMRSFSLSTNLQE [49] | 15 | 15 | 
FNLFSTKDSSAAWDE [22] |  |  | > 500
QQIFNLFSTKDSSAA [21] |  |  | 70
YTELYQQLNDLEACV [29] |  |  | 5
QFQKAETIPVLHEMI [16] | 350 |  | 
KDSSAAWDETLLDKF [24] |  |  | 450
KDRHDFGFPQEEFGN [11] |  | > 500 | 
SCLKDRHDFGFPQEE [10] |  | > 500 | 
SPCAWEVVRAEIMRS [46] |  | 8 | 
LKEKKYSPCAWEVVR [44] |  | > 500 | 
KEDSILAVRKYFQRI [38] | > 500 | > 500 | 
VVRAEIMRSFSLSTN [48] | 25 | 7 | 
TETPLMKEDSILAVR [36] | 25 | > 500 | 
AQMRRISLFSCLKDR [7] | 150 |  | 
AVRKYFQRITLYLKE [40] | 95 | 70 | 
HDFGFPQEEFGNQFQ [12] |  | > 500 | 
KKYSPCAWEVVRAEI [45] |  | 200 | 
TLYLKEKKYSPCAWE [43] |  | > 500 | 
